The target in one data set is T1, GST-ZFDBD-ZBTB2 (human, UniProt Q8N680 254-468).
T1 sequence: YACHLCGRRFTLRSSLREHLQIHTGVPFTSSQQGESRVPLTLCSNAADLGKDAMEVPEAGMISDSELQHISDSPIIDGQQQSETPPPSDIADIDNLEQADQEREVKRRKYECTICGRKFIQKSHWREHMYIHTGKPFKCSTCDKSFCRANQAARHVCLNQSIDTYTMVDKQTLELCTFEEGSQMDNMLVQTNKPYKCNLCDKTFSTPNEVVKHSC
Put plainly: EMSA.

A further data set concerns the target Sp1 (recombinant) (UniProt P08047 1-785). As to the kind of experiment: EMSA.

Sp1 (recombinant), sequence (P08047 whole entry): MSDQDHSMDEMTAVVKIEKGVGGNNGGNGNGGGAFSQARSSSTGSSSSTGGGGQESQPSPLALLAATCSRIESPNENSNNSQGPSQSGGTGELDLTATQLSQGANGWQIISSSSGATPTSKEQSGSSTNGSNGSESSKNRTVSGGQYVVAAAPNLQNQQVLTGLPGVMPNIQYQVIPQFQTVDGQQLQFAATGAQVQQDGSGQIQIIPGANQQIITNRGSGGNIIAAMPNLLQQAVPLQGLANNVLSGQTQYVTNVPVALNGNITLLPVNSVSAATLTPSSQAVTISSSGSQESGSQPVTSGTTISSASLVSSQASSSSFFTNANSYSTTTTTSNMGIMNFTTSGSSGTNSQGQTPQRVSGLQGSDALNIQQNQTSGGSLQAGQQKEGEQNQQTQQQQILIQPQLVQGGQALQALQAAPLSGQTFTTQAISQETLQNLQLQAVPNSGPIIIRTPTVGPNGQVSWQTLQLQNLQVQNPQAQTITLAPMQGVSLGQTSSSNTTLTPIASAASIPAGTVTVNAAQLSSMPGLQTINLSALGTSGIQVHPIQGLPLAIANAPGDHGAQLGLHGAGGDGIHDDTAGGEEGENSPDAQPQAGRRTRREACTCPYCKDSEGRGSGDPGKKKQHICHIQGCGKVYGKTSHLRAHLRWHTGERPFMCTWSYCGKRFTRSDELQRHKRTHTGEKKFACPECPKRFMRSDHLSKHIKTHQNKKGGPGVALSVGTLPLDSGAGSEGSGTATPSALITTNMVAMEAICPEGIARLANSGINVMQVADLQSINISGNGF

B1: GC-box #3 EMSA probe (dsDNA)
DNA 1: GATCTTTCCCTGCGCGGGGCGGGCGGCCGCAGCCC
DNA 2: GGGCTGCGGCCGCCCGCCCCGCGCAGGGAAAGATC
As to B1, the binding result in the data set with GST-ZFDBD-ZBTB2 and with Sp1 (recombinant) was “binds” throughout.

The values above are taken from article PMC4330387.
